{"source": "patent US20200255501A1", "about": "(VIB VZW, published 2020)", "binders": {"B1": {"name": "anti-Sap Nanobody692 (VHH)", "VHH": "QVQLVESGGGLVQAGGSLRLSCAASGSIFRINDMGWYRQAPGKQRELVAVITSGGSANYADSVKGRFSISRDNAKKAVYLRMNSLKPEDTAVYYCNADFGTLGRYDYWGQGTQVTVSS"}, "B2": {"name": "anti-Sap Nanobody688 (VHH)", "VHH": "QVQLVESGGGLVRAGGSLRLSCAASGSIFRINDMGWYRQAPGKQRELVAAITSGGSTNYADSVKGRFTISRDNAKNTVYLQMNSLKPEDTAVYYCNADFSTVRERRYDYWGQGTQVTVSS"}, "B3": {"name": "anti-Sap Nanobody707 (VHH)", "VHH": "QVQLVESGGGLVQAGGSLRLSCAASGSIFRINAMGWYRQASGKQRELVAAITSGGNTNYADSVKGRFTISRDNAKNTVYLQMNSLKPEDTAVYYCNADFGTGGRPYDYWGQGTQVTVSS"}, "B4": {"name": "anti-Sap Nanobody683 (VHH)", "VHH": "B3 VHH with A33D, S41P, N56S, N76K, T77M, N96H, G100S, G103W, R104A"}, "B5": {"name": "anti-Sap Nanobody702 (VHH)", "VHH": "QVQLVESGGGLVQAGGSLRLSCAASGSIFRVNDMGWYRQAPGKQRELVAIIITGGSTNYADSVKGRFTISRDNAKNTVYLQMNSLRPEDTAVYYCNADFGTGPGRYDYWGQGTQVTVSS"}, "B6": {"name": "anti-Sap Nanobody684 (VHH)", "VHH": "B3 VHH with S21F, I31V, A40V, S41T, N56R, A74I, F99L, P105S"}, "B7": {"name": "anti-Sap Nanobody703 (VHH)", "VHH": "QVQLVESGGGLVQPGGSLRLSCAASGFTFSSYAMSWVRQAPGKGLEWVSDINSGGGSTYYADSVKGRFTISRDNAKNTLYLQMNSLKPEDTAVYYCATGGKYGSTWYGQIEYDYWGQGTQVTVSS"}}, "key": {"[1]": {"target": "Sap Domain 2 (D2, residues 296-384), isolated recombinant domain (Bacillus anthracis, UniProt P49051 296-384)", "experiment": "dot blot"}, "[2]": {"target": "Sap Domain 1 (D1, residues 216-295), isolated recombinant domain (Bacillus anthracis, UniProt P49051 216-295)", "experiment": "dot blot"}, "[3]": {"target": "T1, B. anthracis Surface array protein (Sap), native S-Layer on B. anthracis 34F2 cells (Bacillus anthracis, UniProt P49051 30-814)", "T1 sequence": "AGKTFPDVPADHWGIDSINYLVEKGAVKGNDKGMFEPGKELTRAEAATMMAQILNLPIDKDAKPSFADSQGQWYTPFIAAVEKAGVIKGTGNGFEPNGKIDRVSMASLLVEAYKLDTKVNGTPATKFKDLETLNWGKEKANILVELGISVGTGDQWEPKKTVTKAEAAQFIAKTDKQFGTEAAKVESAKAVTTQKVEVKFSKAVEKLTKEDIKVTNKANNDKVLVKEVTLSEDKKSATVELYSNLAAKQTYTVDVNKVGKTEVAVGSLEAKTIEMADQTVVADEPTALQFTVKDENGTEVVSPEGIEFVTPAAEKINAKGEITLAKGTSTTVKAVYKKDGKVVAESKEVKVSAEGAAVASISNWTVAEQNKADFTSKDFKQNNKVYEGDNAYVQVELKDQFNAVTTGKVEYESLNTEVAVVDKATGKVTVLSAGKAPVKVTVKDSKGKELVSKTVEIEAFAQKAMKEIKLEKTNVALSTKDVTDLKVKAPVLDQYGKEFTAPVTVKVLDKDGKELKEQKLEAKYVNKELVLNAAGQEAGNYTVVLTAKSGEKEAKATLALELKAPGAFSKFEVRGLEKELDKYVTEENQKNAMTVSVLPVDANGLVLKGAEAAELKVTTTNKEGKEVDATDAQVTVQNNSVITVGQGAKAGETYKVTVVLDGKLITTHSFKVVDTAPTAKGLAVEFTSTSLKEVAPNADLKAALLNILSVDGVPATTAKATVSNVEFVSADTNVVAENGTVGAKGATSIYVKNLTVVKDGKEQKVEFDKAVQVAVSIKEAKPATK", "experiment": "fluorescence microscopy of B. anthracis 34F2 cells with DyLight 650-labelled Nb"}}, "note": "Substitutions are numbered along the chain they refer to.", "data": [{"binder": "B1", "values": [{"measurement": "binding result", "setting": "[1]", "result": "no binding"}]}, {"binder": "B2", "values": [{"measurement": "binding result", "setting": "[1]", "result": "no binding"}]}, {"binder": "B3", "values": [{"measurement": "binding result", "setting": "[1]", "result": "no binding"}]}, {"binder": "B4", "values": [{"measurement": "binding result", "setting": "[1]", "result": "no binding"}]}, {"binder": "B5", "values": [{"measurement": "binding result", "setting": "[1]", "result": "no binding"}]}, {"binder": "B6", "values": [{"measurement": "binding result", "setting": "[2]", "result": "binds"}]}, {"binder": "B7", "values": [{"measurement": "binding result", "setting": "[3]", "result": "binds"}]}]}
